# Numbered stars: 1 amine (or outer) side, 2 acyl side, 3 side chain; on linkers, the order of the positions; unused ones are H or OH. Bridge positions count the residues as written; N and C are the ends. Square brackets hold non-standard residues; d marks the D form. Ends that are not written are not given here. KCOpipzaa = N6-(4-(carboxymethyl)piperazine-1-carbonyl)-L-lysine, O=C(NCCCC[C@H](N[*:1])C(=O)[*:2])N1CCN(CC(=O)[*:3])CC1; Bph3C = (S)-2-amino-3-(3'-chloro-[1,1'-biphenyl]-4-yl)propanoic acid, O=C([C@H](Cc1ccc(-c2cccc(Cl)c2)cc1)N[*:1])[*:2]; F44thp = (S)-2-amino-3-[4-(tetrahydro-2H-pyran-4-yl)phenyl]propanoic acid, O=C([C@H](Cc1ccc(C2CCOCC2)cc1)N[*:1])[*:2]; Bph3F = (S)-2-amino-3-(3'-fluoro-[1,1'-biphenyl]-4-yl)propanoic acid, O=C([C@H](Cc1ccc(-c2cccc(F)c2)cc1)N[*:1])[*:2]; Cha4tH = (S)-2-amino-3-((1r,4S)-4-hydroxycyclohexyl)propanoic acid, O=C([C@H](C[C@H]1CC[C@H](O[*:3])CC1)N[*:1])[*:2]; F42Py = (S)-2-amino-3-[4-(pyridin-2-yl)phenyl]propanoic acid, O=C([C@H](Cc1ccc(-c2ccccn2)cc1)N[*:1])[*:2]; Phe(4-(4-pyridyl)) = N[C@@H](Cc1ccc(-c2ccncc2)cc1)C(=O)O; Phe(4-(3-Py)) = N[C@@H](Cc1ccc(-c2cccnc2)cc1)C(=O)O; 3Pal(6-Ph) = N[C@@H](Cc1ccc(-c2ccccc2)nc1)C(=O)O; Phe(4-COOH) = N[C@@H](Cc1ccc(C(=O)O)cc1)C(=O)O; Bip = N[C@@H](Cc1ccc(-c2ccccc2)cc1)C(=O)O; Hyp = O=C(O)[C@@H]1C[C@@H](O)CN1; NMeF = CN[C@@H](Cc1ccccc1)C(=O)O; 3Pal = N[C@@H](Cc1cccnc1)C(=O)O; 4Pal = N[C@@H](Cc1ccncc1)C(=O)O; Cha = N[C@@H](CC1CCCCC1)C(=O)O; Cba = N[C@@H](CC1CCC1)C(=O)O
# Legend:
# [1] = target: T1, BMP4 (Homo sapiens, UniProt P12644); assay: BMP4 signal transduction inhibitory activity: SMAD1 phosphorylation by BMP4 stimulus, AlphaLISA SureFire, A549 cells; format: cell-based; conditions: BMP4 0.2 nM; for aLIZA BMP4 (0.2 nM) % inh: peptide 0.02, 0.2, 2 nM, Table 6; for aLISA BMP4 (0.2 nM) % inh: SMAD1 phosphorylation, peptide conc. in assay 0.2, 2, 20 nM
# T1 sequence (P12644 293-408): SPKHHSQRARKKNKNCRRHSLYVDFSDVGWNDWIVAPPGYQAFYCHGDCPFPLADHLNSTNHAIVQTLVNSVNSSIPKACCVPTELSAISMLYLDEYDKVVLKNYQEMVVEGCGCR
# [2] = target: T2, BMP7 (Homo sapiens, UniProt P18075); assay: BMP7 signal transduction inhibitory activity: SMAD1 phosphorylation by BMP7 stimulus, A549 cells; format: cell-based; conditions: BMP7 10 nM; for aLIZA BMP7 (10 nM) % inh: peptide 10, 100, 1000 nM, Table 6; for aLISA BMP7 (10 nM) % inh: SMAD1 phosphorylation, peptide conc. in assay 1, 10, 100 nM
# T2 sequence (P18075 293-431): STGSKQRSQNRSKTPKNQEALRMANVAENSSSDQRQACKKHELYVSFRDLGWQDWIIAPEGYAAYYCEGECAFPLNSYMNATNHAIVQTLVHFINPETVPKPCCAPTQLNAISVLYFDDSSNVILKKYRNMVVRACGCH
# Method in brief: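 Inhibition was measured as loss of BMP7-induced SMAD1 phosphorylation, using 10 nM BMP7 on A549 cells. Most peptides were given as three-concentration sets, such as 1/10/100, 10/100/1,000, 100/300/1,000 or 10/30/90 nM. Others were given as eight 1/3-ratio dilutions from 100 or 1,000 nM, alongside Noggin as control.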
Substance,aLIZA BMP4 (0.2 nM) % inh [1],aLIZA BMP7 (10 nM) % inh [2],aLISA BMP4 (0.2 nM) % inh [1],aLISA BMP7 (10 nM) % inh [2]
311 ({CH2CO}-ERV[Phe(4-COOH)]V[KCOpipzaa]R[3Pal(6-Ph)][KCOpipzaa]Y[Hyp][Bph3F]Y[Phe(4-COOH)][Phe(4-COOH)]SCG-NH2; thioether N-17 (inferred)) [compound 311],B (showed less than 30% of inhibitory activity in 0.02 nM-addition zone and showed 30% or more of inhibitory activity in 0.2 nM-addition zone),"E (showed less than 30% of inhibitory activity in 100 nM-addition zone and showed 30% or more of inhibitory activity in 1,000 nM-addition zone)",,
313 (ERV[Phe(4-COOH)][Cba][KCOpipzaa]R[3Pal(6-Ph)][KCOpipzaa]Y[Hyp][Bph3F]Y[Phe(4-COOH)][Phe(4-COOH)]SCG-NH2; not fully specified) [compound 313],A (showed 30% or more of inhibitory activity in a zone to which the peptide was added in an amount of 0.02 nM),"E (showed less than 30% of inhibitory activity in 100 nM-addition zone and showed 30% or more of inhibitory activity in 1,000 nM-addition zone)",,
314 (ERV[Phe(4-COOH)][Cba][KCOpipzaa]R[3Pal(6-Ph)][KCOpipzaa]Y[Hyp][Bph3C]Y[Phe(4-COOH)][Phe(4-COOH)]SCG-NH2; not fully specified) [compound 314],B (showed less than 30% of inhibitory activity in 0.02 nM-addition zone and showed 30% or more of inhibitory activity in 0.2 nM-addition zone),"E (showed less than 30% of inhibitory activity in 100 nM-addition zone and showed 30% or more of inhibitory activity in 1,000 nM-addition zone)",,
315 (ERV[Phe(4-COOH)][Cba][KCOpipzaa]R[3Pal(6-Ph)][KCOpipzaa]Y[Hyp][Bip][4Pal][Phe(4-COOH)][Phe(4-COOH)]SCG-NH2) [compound 315],B (showed less than 30% of inhibitory activity in 0.02 nM-addition zone and showed 30% or more of inhibitory activity in 0.2 nM-addition zone),"E (showed less than 30% of inhibitory activity in 100 nM-addition zone and showed 30% or more of inhibitory activity in 1,000 nM-addition zone)",,
316 (ERV[Phe(4-COOH)][Cba][KCOpipzaa]R[3Pal(6-Ph)][KCOpipzaa]Y[Hyp][Bph3F][4Pal][Phe(4-COOH)][Phe(4-COOH)]SCG-NH2; not fully specified) [compound 316],C (showed less than 30% of inhibitory activity in 0.2 nM-addition zone and showed 30% or more of inhibitory activity in 2 nM-addition zone),ND (the inhibitory activity was less than 30% at the maximum concentration evaluated),,
317 (ERV[Phe(4-COOH)][Cba][KCOpipzaa]R[3Pal(6-Ph)][KCOpipzaa]Y[Hyp][Bph3C][4Pal][Phe(4-COOH)][Phe(4-COOH)]SCG-NH2; not fully specified) [compound 317],B (showed less than 30% of inhibitory activity in 0.02 nM-addition zone and showed 30% or more of inhibitory activity in 0.2 nM-addition zone),ND (the inhibitory activity was less than 30% at the maximum concentration evaluated),,
318 (ERV[Phe(4-COOH)][Cha4tH][KCOpipzaa]R[3Pal(6-Ph)][KCOpipzaa]Y[Hyp][Bph3F]Y[Phe(4-COOH)][Phe(4-COOH)]SCG-NH2; not fully specified) [compound 318],B (showed less than 30% of inhibitory activity in 0.02 nM-addition zone and showed 30% or more of inhibitory activity in 0.2 nM-addition zone),D (showed less than 30% of inhibitory activity in a zone to which the peptide was added in an amount of 10 nM and showed 30% or more of inhibitory activity in 100 nM-addition zone),,
319 (ERV[Phe(4-COOH)][Cha4tH][KCOpipzaa]R[3Pal(6-Ph)][KCOpipzaa]Y[Hyp][Bph3C]Y[Phe(4-COOH)][Phe(4-COOH)]SCG-NH2; not fully specified) [compound 319],B (showed less than 30% of inhibitory activity in 0.02 nM-addition zone and showed 30% or more of inhibitory activity in 0.2 nM-addition zone),D (showed less than 30% of inhibitory activity in a zone to which the peptide was added in an amount of 10 nM and showed 30% or more of inhibitory activity in 100 nM-addition zone),,
320 (ERV[Phe(4-COOH)][Cha4tH][KCOpipzaa]R[3Pal(6-Ph)][KCOpipzaa]Y[Hyp][Bph3F][4Pal][Phe(4-COOH)][Phe(4-COOH)]SCG-NH2; not fully specified) [compound 320],B (showed less than 30% of inhibitory activity in 0.02 nM-addition zone and showed 30% or more of inhibitory activity in 0.2 nM-addition zone),"E (showed less than 30% of inhibitory activity in 100 nM-addition zone and showed 30% or more of inhibitory activity in 1,000 nM-addition zone)",,
321 (ERV[Phe(4-COOH)][Cha4tH][KCOpipzaa]R[3Pal(6-Ph)][KCOpipzaa]Y[Hyp][Bph3C][4Pal][Phe(4-COOH)][Phe(4-COOH)]SCG-NH2) [compound 321],B (showed less than 30% of inhibitory activity in 0.02 nM-addition zone and showed 30% or more of inhibitory activity in 0.2 nM-addition zone),"E (showed less than 30% of inhibitory activity in 100 nM-addition zone and showed 30% or more of inhibitory activity in 1,000 nM-addition zone)",,
322 ([4Pal]G[NMeF]G[Bip]GDD[Cha]A[NMeF]LHCG-NH2) [compound 322],,,ND (the inhibitory activity was less than 30% at the maximum concentration evaluated),D (showed less than 30% of inhibitory activity in 10 nM-addition zone and showed 30% or more of inhibitory activity in 100 nM-addition zone)
323 ([3Pal]G[NMeF]G[Bip]GDD[Cha]A[NMeF]LHCG-NH2; not fully specified) [compound 323],,,ND (the inhibitory activity was less than 30% at the maximum concentration evaluated),D (showed less than 30% of inhibitory activity in 10 nM-addition zone and showed 30% or more of inhibitory activity in 100 nM-addition zone)
324 (FG[NMeF]GFGDD[Cha]A[NMeF]LHCG-NH2) [compound 324],,,ND (the inhibitory activity was less than 30% at the maximum concentration evaluated),D (showed less than 30% of inhibitory activity in 10 nM-addition zone and showed 30% or more of inhibitory activity in 100 nM-addition zone)
325 (FG[NMeF]G[Phe(4-(4-pyridyl))]GDD[Cha]A[NMeF]LHCG-NH2; not fully specified) [compound 325],,,ND (the inhibitory activity was less than 30% at the maximum concentration evaluated),D (showed less than 30% of inhibitory activity in 10 nM-addition zone and showed 30% or more of inhibitory activity in 100 nM-addition zone)
326 (FG[NMeF]G[Phe(4-(3-Py))]GDD[Cha]A[NMeF]LHCG-NH2; not fully specified) [compound 326],,,ND (the inhibitory activity was less than 30% at the maximum concentration evaluated),D (showed less than 30% of inhibitory activity in 10 nM-addition zone and showed 30% or more of inhibitory activity in 100 nM-addition zone)
327 (FG[NMeF]G[F42Py]GDD[Cha]A[NMeF]LHCG-NH2; not fully specified) [compound 327],,,A (showed less than 30% of inhibitory activity in 2 nM-peptide-addition zone and showed 30% or more of inhibitory activity in 20 nM-addition zone),D (showed less than 30% of inhibitory activity in 10 nM-addition zone and showed 30% or more of inhibitory activity in 100 nM-addition zone)
"328 (FG[NMeF]G[3Pal(6-Ph)]GDD[Cha]A[NMeF]LHCG-NH2; not fully specified (N-terminus, bridges)) [compound 328]",,,ND (the inhibitory activity was less than 30% at the maximum concentration evaluated),D (showed less than 30% of inhibitory activity in 10 nM-addition zone and showed 30% or more of inhibitory activity in 100 nM-addition zone)
"329 (FG[NMeF]G[F44thp]GDD[Cha]A[NMeF]LHCG-NH2; not fully specified (N-terminus, bridges)) [compound 329]",,,ND (the inhibitory activity was less than 30% at the maximum concentration evaluated),D (showed less than 30% of inhibitory activity in 10 nM-addition zone and showed 30% or more of inhibitory activity in 100 nM-addition zone)
"330 (FG[NMeF][dA][Bip]GDD[Cha]A[NMeF]LHCG-NH2; not fully specified (N-terminus, bridges)) [compound 330]",,,ND (the inhibitory activity was less than 30% at the maximum concentration evaluated),D (showed less than 30% of inhibitory activity in 10 nM-addition zone and showed 30% or more of inhibitory activity in 100 nM-addition zone)
"331 (FG[NMeF][dS][Bip]GDD[Cha]A[NMeF]LHCG-NH2; not fully specified (N-terminus, bridges)) [compound 331]",,,ND (the inhibitory activity was less than 30% at the maximum concentration evaluated),D (showed less than 30% of inhibitory activity in 10 nM-addition zone and showed 30% or more of inhibitory activity in 100 nM-addition zone)
